We go through 1 substance from patent WO2001004159A1.

By EC50 is commonly meant the concentration giving half of the maximal effect. The low end stands for an effect from little substance, the high end for a need for much substance.

In assay [1] the target is hPF4/heparin complex (human) (UniProt P02776). As to the kind of experiment: cell-based or functional assay.
For assay [2], the target named is platelet Fc receptor Fc-gamma RIIA (human) (UniProt P12318). As to the kind of experiment: cell-based or functional assay.
UniProt P12318, sequence (P12318 34-317, form in doubt): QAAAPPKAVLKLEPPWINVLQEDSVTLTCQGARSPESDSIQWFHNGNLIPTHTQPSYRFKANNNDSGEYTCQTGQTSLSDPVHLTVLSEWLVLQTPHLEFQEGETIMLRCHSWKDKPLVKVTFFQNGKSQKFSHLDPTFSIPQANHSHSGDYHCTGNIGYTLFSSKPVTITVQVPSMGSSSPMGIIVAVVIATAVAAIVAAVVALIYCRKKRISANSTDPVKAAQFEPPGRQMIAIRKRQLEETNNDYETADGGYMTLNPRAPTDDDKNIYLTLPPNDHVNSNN
In assay [3] the target is hPF4/heparin complex (human) (UniProt P02776). As to the kind of experiment: ELISA, wells coated with hPF4 with or without heparin. On the technique in general: In an ELISA, binding on a coated surface is turned into a signal by an enzyme label.
Assay [4] has the same target. As to the kind of experiment: ELISA, wells coated with hPF4/heparin complex.
For assay [5] the target is unchanged. As to the kind of experiment: ELISA (A405), KKO below 0.14 micrograms per milliliter.

UniProt P02776, sequence (P02776 32-101, one chain of several): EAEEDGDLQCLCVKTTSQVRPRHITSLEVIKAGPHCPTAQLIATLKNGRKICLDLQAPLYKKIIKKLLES

murine monoclonal antibody KKO came in with a KKO concentration required to initiate 14C-serotonin release (micrograms per milliliter) in assay [1] above 180. Also, the 14C-serotonin release induced by KKO in the presence of the FcγRIIA-specific mAb IV.3 in assay [2] was below 5 % release. The A405 ratio to hPF4/heparin complex versus hPF4 alone in assay [3] was above 30. In assay [4], the EC50 turned out to be 0.036 µg/mL. Further, the ratio of binding to PF4/heparin complex vs. binding to PF4 alone in assay [5] was above 400.
